Results published in the supplement of paper PMC9170038.

These sequences were tested on K4 kissing-loop RNA reporter (assay: apparent KD of K4 kissing-loop reporter; higher = weaker reporter binding). Details: Eterna round: R107; input ligand: none.
Experimental: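 RNA-MaP round R107: designed RNA switches with theophylline, tryptophan, arginine or FMN aptamers are transcribed on-chip within common flanks. They are titrated with a labelled K4 kissing-loop RNA reporter in RNA-MaP buffer (100 mM Tris pH 7.5, 80 mM KCl, 4 mM MgCl2), without ligand or with the indicated ligand. Median apparent KD per design.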
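Also: bound reporter read as fluorescence of individual clusters on recovered sequencing chips by microscopy, with normalized cluster intensities fitted with a binding model.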

Sequence	apparent KD of K4 kissing-loop reporter [nM]
AAAAUAAACCAGUGAUGUUGGUGUCCGGAUACCAGCGAUAAUCAUCGCCCUUGGCAGCCGCGGACGUACAAAAUAAGUACGUCCU [MatMod 13 - Jieux - Same State - Theophylline A]	346
AGACUACCACACUGUCAAUAGACAGUGUACUAGGAUAUGCUGAUAAGCAGAAGGAGUGAUGUUCCUAGGUAGUCAAUAAAAUAAU [FmnAX 13 U28]	494
UCCUAGGCUCGAAAGAGCCUAGGAUGGACUCAGGAUAUCCGGAAACGGAGAAGGGAGUCACUAGUGAUGUUAGGGACUCCCUAAC	110
AAUAUAGUGAUGUUAUAUAAGAAGGAGUUACGAGGACCGGUACGGCCGCCACUCGAAACGAGUGAAGAAGGAGGAAGGAGGAGGA [SSTRyptA.A]	453
UUAUAUACGAGUGAUGUUCGUUAUUUAUCAGAGGAUAUGCUUAAAUGCAGAAGGCUGUAUUUCUAUUUGAUAUUAAAUUUUAUAA [JR_Nu3_ExcFMNA_Sub026]	66.8
UGGACCUGACUCGAUAAGAGUCAAUGAGAUACCAGUGACGAAAGUCACCCUUGGCAGCUCCUGCCAGUGAUGUUGGUAAGGUCCU [#SwitchBubble 4 #StaticStem]	437
UGACAUUGCUCAGAUACCAGACAUGAGCAUCAGCCAUGUGCCAACGUACAAAUAAUAAAUGUCCCUUGGCAGCUGAGCAAUGUCU [TheoBX 15]	48.2
UACAUCGAGCAGAGUGAUGUUUUGUGCGAUACCAGCAAGUGCAAGUGCCCUUGGCAGCGCAAGCGGUUGUAUGUAGGACCGGACG [theeternabot_exclusion_KL_Theo_A_21]	657
GCAGUGAUGUUGCGGAUGUACAGUGGCGUGCGAGGACCGGUACGGCCGCCACUCGUACAGAACAAGCUAAUACAUCGAUAGGUGA [whbob_SS_Tryp_A_m1]	556
CUCUAGGCGCUCGCGUGAGUGAUGUUUACGCGAGGACCGGUACGGCCGCCACUCGCAGACUGGGUGUAAGCGGAGCUGUAUGCCC [theeternabot_exclusion_KL_Trp_A_12]	212
UGACUGGAUGGAAGGAGCGCUAAACUCCUAGUGAUGUUAGGGACAUGAGGCAAAGCCUUGAAGCAGGUAGGUCGCCAUCUAGUCU [FiskerMod 27 - Jieux - Same State - Arginine B]	208
UGAUAGGACAGAAGGAGCGGUAGUGAUGUUACCAAAAGUAUAAGGUGUCAAAAGACACCCUGCCAGGUAGGUCGCUGUCCUAUCU	178
AAGCAGUCUCUCGAAGCCAUCGAAGAUGGGCGAGGACCGGUACGGCCGCCACUCGGAGUGAUGUUCCGAAGACUGCAAAAUAAAA [MatMod 10 - Jieux - Exclusion - Tryptophan A]	396
AGUGCACUGUCAGGAUAUAUACAGUGAUGUUGUGUAUGUCAGCAAGUCAAAGACUUGCUUUUCUGUGUAGAAGGGACUGUGUACA [Omei KL FMN B Exc A v2]	154
UGAUAGGACAGAAGGAGCGGUAGUGAUGUUACCAAAAGGGUAAGGUGUCAAAAGACACCCUACCAGGUAGGUCGCUGUCCUAUCU	104
GAUGUAGAGGCGGCCGCCACUAGUGAUGUUAGUGAUGUUUGAUACUGUAUAUAUCGGCGUGUAGAUAGGACCGGGCCUGAUGGAG [dbbdmullin]	214
UCUGGUAUAUCUGAUACCAGAGUAUAGUAUCAAUUGAAUAUGGAGUGAUGUUCCAUACAACUCCCUUGGCAGCAGAUCUUCCUCU [Same State Theophylline B GF 23]	188
UGGAUAUAGUUUAGUCUGGUGAGGUCAGAUACCAGACUAGCGAUAGUCCCUUGGCAGCUGAUUAUGAUUGAGUGAUGUUCAAUCG [Theo A Ex t9]	170
GAAUUAAUGUCUUUAAUAUAAUAAUCAGAUACCAGUGAUUUGUGACACCCUUGGCAGCUGUAUAGAGUGAUGUUCUUAUACAUAA [#12 K4 Theophylline A Exclusion]	409
AACGUGGCCAAAGGAUAUCUCCCUACGUCGUUGCAUCUACCUCUGUUUGCUCUGAGUGAUGUUUGGAGAGAAGGUUGAGGCGAUU [theeternabot_exclusion_KL_FMN_B_29]	442
CCAAGCGUCAGCGAUACCAGAAUUCUAGUGAUGUUAGGUUCUGUCAUUGUACUAGCAGUGUUCCCUUGGCAGCGCGUGAUAGGCA [theeternabot_exclusion_KL_Theo_B_16]	140

Same assay, conditions: Eterna round: R107; input ligand: theophylline 20 uM

Sequence	apparent KD of K4 kissing-loop reporter [nM]
GUACGCUCUCGAGUGAUGUUCGGUAAUAGAGAGGAUAUCGCUUUUGCGAGAAGGCUCUGAAUGAGGAAACUCGUUCUGAGUGUAC [FMN A 19]	358
UGCCGGAAGGCGAGCGCUCCCACUCCGGAAGGAGCGCCCGUAAGGGCAGGUAGGUCGCCGGAGUGAUGUUCCGGUGGAGGGCUCG [#2 Exclusion - Arginine A Attempt #22 (Inspired by Omei)]	185
AACCUUGUAGUGAUGUUGCAAGGCGCUGAUACCAGUCACAGCCACGACCCUUGGCAGCAGUGGCGUUCAUGAUAAAAUAGAUUAA [theeternabot_sameState_KL_Theo_A_49]	37
UAUUGAUUGUCAGGAUAUCGUAAACGAGUGAUGUUCGUAAAUCGACGAUAGUCGAUAUGAUCUGAACGAGAAGGGACAUUAUUUA [JR_SSFMNB_Sub010]	336
AGUACAAUGGCGGCCGCCACUCAAUGGGCGACCGAAAGGUCGCAUCACUCAGUGAUGUUGAGUGAGAGGACCGGGCCUUUGUACA [Omei KL Tryp B SS B v8]	595
CGGAUGUAGUGAUGUUAUAUUAGAUGUAGACGAGGACCGGUACGGCCGCCACUCGUGACGGCUGCUAGCGCGUUGCGAGGUUUGC [ExTryptoA.Cn]	518
AGAUAGGGCUGAAGGAGCGUCGGAGAAGAGAAGAAGGAAUCCAGUGAUGUUGGAUAGAUCCGACAGGUAGGUCGCAGUUUUAUGA [hbob_SS_Arginine_B_2t139]	178
UAUAUAGUGACGGCCGCCACUAUAUUAAUGUUUAGGUUAGAGUGAUGUUUUGAUUAAUAUUUUUAUAGGACCGGGUUAUAUGUUA [xerrmullin]	739
UAUCGAGUGAUGUUCGAUGUAGUGCAUUCAGAGGAUAUAGGAUGGGCUAGAAGGCUGAAAAGUGCUUCGAGUGAUGUUCGAAGAU [Exclusion FMN A GF 5]	57.6
CGAGUCGGUUCAGAUACCAGCCAAUUAGAGUCGAGUGAUGUUCGACAAUGAACGUCCAAAGGCCCUUGGCAGCUGGAUUGGGAAC [Same State Theophylline B GF 20]	112
AGCUGUGGCAGAAGGAGCGGCAGUUAUUCUGAUAGUACUCUGAGUGAUGUUCAGAACGACUGUCAGGUAGGUCGCUGUCACAGCU [#02 K4 Arginine B Exclusion]	206
CGCAGUGAUGUUGCUAUUAUUCUUGAUUAACGAGGACCGGUACGGCCGCCACUCGGUUUCUAUCUGAUCCAGCGUUUUGUUGAGU [#23 K4 Tryptophan A Exclusion]	620
UGACUGGACUGAAGGAGCGGGCGAGACAAAGUCUCGAACUGCUAGUGAUGUUAGCAAAUAACCCAGGUAGGUCGCAGUCUAGUCU	109
CGUGUAAUGUGGAGAUUUGAAAAGGCGCAUCGAGGACCGGUACGGCCGCCACUCGCUACGAGCUAGUGAUGUUGGCUCGUUCGGA [theeternabot_sameState_KL_Trp_A_23]	252
AAGGCACGGCUUCGGCCGUGCCAAAUAGAUACCAGCAUAAUAAUAUGCCCUUGGCAGCUAAAUAUAAAUUCAGUGAUGUUGGAUA [SS Theo A Tesla 2.2]	649
UGAUACCAGACUGAUACCAGCCAGUGAUGUUGGCUAAGCCAAAUAGGAGUCAAAGACUCCGGCCCUUGGCAGCAGUCUGGUAUCU [TheoBX 5 #SwitchBubble #StaticStem]	124

Sequence	apparent KD of K4 kissing-loop reporter [nM]
GAAGGUCAAAGACCUUCGUGCACAUCUGAUACCAGUCGCGAAAGCGACCCUUGGCAGCAGGGCAGUGAUGUUGCCAGUGCACAAA [Omei KL Theo A SS A v4]	168
UGACACUCAACGGCCGCCACUACCGUCGCCGAAUUCCGCAGUGAUGUUGCGAUCCUCCGAUUGUCUAGGACCGGGUUGUUUGGGC [theeternabot_exclusion_KL_Trp_B_43]	216
AUCCAUAGUGAUGUUGUGAGCGGAGGCACCAAGGAUAUUGCCAGCCCAAGAAGGUGGGUCCCACACACCAGGCAUACAAGUCCGG [theeternabot_exclusion_KL_FMN_A_43]	944
GGAUAGGAUAGAGGAUAUGGUAGUGAUGUUACCAAACUGGUUAAACAUGUCAGAAAACUGGCAUGACCAGAAGGCUGUCCUAUCG [FmnBX 27 U9]	70.5
UGGAGUUGACGAAAAGUCAACUCCUGAGAUCGAGGACCGGUACGGCCGCCACUCGAGCUAACUGCGAGUGAUGUUCGAAAAUAAA [#OpenEnded 1 - Direct theophylline transfer]	393
AAAAUAAACCAGUGAUGUUGGUGUCCGGAUACCAGCGAUAAUCAUCGCCCUUGGCAGCCGCGGACGUACAAAAUAAGUACGUCCU [MatMod 13 - Jieux - Same State - Theophylline A]	310
AGACUACCACACUGUCAAUAGACAGUGUACUAGGAUAUGCUGAUAAGCAGAAGGAGUGAUGUUCCUAGGUAGUCAAUAAAAUAAU [FmnAX 13 U28]	629
UCCUAGGCUCGAAAGAGCCUAGGAUGGACUCAGGAUAUCCGGAAACGGAGAAGGGAGUCACUAGUGAUGUUAGGGACUCCCUAAC	123
AAUAUAGUGAUGUUAUAUAAGAAGGAGUUACGAGGACCGGUACGGCCGCCACUCGAAACGAGUGAAGAAGGAGGAAGGAGGAGGA [SSTRyptA.A]	409
UUAUAUACGAGUGAUGUUCGUUAUUUAUCAGAGGAUAUGCUUAAAUGCAGAAGGCUGUAUUUCUAUUUGAUAUUAAAUUUUAUAA [JR_Nu3_ExcFMNA_Sub026]	86.1
UGGACCUGACUCGAUAAGAGUCAAUGAGAUACCAGUGACGAAAGUCACCCUUGGCAGCUCCUGCCAGUGAUGUUGGUAAGGUCCU [#SwitchBubble 4 #StaticStem]	575
UGACAUUGCUCAGAUACCAGACAUGAGCAUCAGCCAUGUGCCAACGUACAAAUAAUAAAUGUCCCUUGGCAGCUGAGCAAUGUCU [TheoBX 15]	64.6
UACAUCGAGCAGAGUGAUGUUUUGUGCGAUACCAGCAAGUGCAAGUGCCCUUGGCAGCGCAAGCGGUUGUAUGUAGGACCGGACG [theeternabot_exclusion_KL_Theo_A_21]	964
GCAGUGAUGUUGCGGAUGUACAGUGGCGUGCGAGGACCGGUACGGCCGCCACUCGUACAGAACAAGCUAAUACAUCGAUAGGUGA [whbob_SS_Tryp_A_m1]	516
CUCUAGGCGCUCGCGUGAGUGAUGUUUACGCGAGGACCGGUACGGCCGCCACUCGCAGACUGGGUGUAAGCGGAGCUGUAUGCCC [theeternabot_exclusion_KL_Trp_A_12]	174
